Earlier results in paper PMC12469268.
pKd, pKi: −log10 of the molar value.

Tests used:
[1] = target: α1A-adrenoceptor (Homo sapiens) (UniProt P35348); assay: 3H-prazosin competition binding
[2] = target: integrin αvβ3 (Homo sapiens) (UniProt P06756)
[3] = target: α2B-adrenoceptor (Homo sapiens) (UniProt P18089)
[4] = target: α2C-adrenoceptor (Homo sapiens) (UniProt P18825)
[5] = target: α2A-adrenoceptor (Homo sapiens) (UniProt P08913)

With AdTx1 (from UniProt P85092) as the substance, how does the pKi [1] read?
Its pKi is 9.46.

With “CTX A5 (cardiotoxin A5) (from UniProt P62375)” as the substance, how does the pKd [2] read?
Its pKd is 6.52.

With ρ-Da1b (from UniProt P86419) as the substance, how does the pKi [3] read?
The pKi was 7.14.

And the pKi [4]?
The pKi was 7.42.

What about the pKi [5] of the same substance?
The pKi was 7.85.
